Laboratory results as given in patent US20230111363A1 (LMMUNOMETABOLISM DEVELOPMENT, published 2023).
Changes are numbered by the printed parent chain.

T1: human monocarboxylate transporter 1 (MCT1) (human, UniProt P53985 1-500)
T1 sequence: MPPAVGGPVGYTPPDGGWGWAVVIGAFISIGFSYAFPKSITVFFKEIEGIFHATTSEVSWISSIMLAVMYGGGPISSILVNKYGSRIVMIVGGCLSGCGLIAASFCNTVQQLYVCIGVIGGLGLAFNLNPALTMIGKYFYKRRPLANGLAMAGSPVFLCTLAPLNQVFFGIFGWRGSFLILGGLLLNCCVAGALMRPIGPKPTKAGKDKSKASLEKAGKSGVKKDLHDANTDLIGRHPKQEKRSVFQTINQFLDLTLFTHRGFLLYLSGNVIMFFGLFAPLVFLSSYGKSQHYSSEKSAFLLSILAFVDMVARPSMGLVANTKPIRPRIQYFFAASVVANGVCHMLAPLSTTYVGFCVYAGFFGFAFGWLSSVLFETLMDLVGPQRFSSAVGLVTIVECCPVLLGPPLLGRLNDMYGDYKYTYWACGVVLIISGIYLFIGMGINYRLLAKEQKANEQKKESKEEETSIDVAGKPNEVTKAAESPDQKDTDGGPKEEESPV

B1: anti-human MCT1 antibody Ab7 (antibody, human IgG1, kappa, V domains shown)
VH: QVQLVQSGAEVKKPGASVKVSCTVSGRSRTNYHLQWVRQAPGQGLEWMGFIRSSGNTEYNSEFKSRVTMTRDTSTSTVYMELSSLRSEDTAVYYCARNRWYHGTYYSPGYYVMDAWGQGTLVTVSS
VL: EIVLTQSPGTLSLSPGERATLSCKGSQNIENYLAWYQQKPGQAPRLLIYNRHNLQTGIPDRFSGSGSGTDFTLTISRLEPEDFAVYYCYQYSDGYTFGGGTKVEIKR
notes: IgG1EN backbone
B2: anti-human MCT1 antibody Ab9 (antibody, human IgG1, kappa, V domains shown)
VH: B1 VH with R29L, L34I
VL: B1 VL
notes: IgG1EN backbone
B3: anti-human MCT1 antibody Ab14 (antibody, human IgG1, kappa, V domains shown)
VH: B1 VH with R29L, A115P
VL: B1 VL
notes: IgG1EN backbone
B4: anti-human MCT1 antibody Ab8 (antibody, human IgG1, kappa, V domains shown)
VH: B1 VH with R29L, E58I
VL: B1 VL
notes: IgG1EN backbone
B5: anti-human MCT1 antibody Ab11 (antibody, human IgG1, kappa, V domains shown)
VH: B1 VH with R29L, Y101H
VL: B1 VL
notes: IgG1EN backbone
B6: anti-human MCT1 antibody Ab10 (antibody, human IgG1, kappa, V domains shown)
VH: B1 VH with R29L, N31G
VL: B1 VL
notes: IgG1EN backbone
B7: anti-human MCT1 antibody Ab16 (antibody, human IgG1, kappa, V domains shown)
VH: B1 VH with V24R, R29L
VL: B1 VL
notes: IgG1EN backbone
B8: anti-human MCT1 antibody Ab13 (antibody, human IgG1, kappa, V domains shown)
VH: B1 VH with R29L, Y101R
VL: B1 VL
notes: IgG1EN backbone
B9: anti-human MCT1 antibody Ab15 (antibody, human IgG1, kappa, V domains shown)
VH: B1 VH with R29L, R99L
VL: B1 VL
notes: IgG1EN backbone
B10: anti-human MCT1 antibody Ab12 (antibody, human IgG1, kappa, V domains shown)
VH: B1 VH with R29L, Q35V
VL: B1 VL
notes: IgG1EN backbone
B11: anti-human MCT1 antibody Ab17 (antibody, human IgG1, kappa, V domains shown)
VH: B1 VH with R29L, Y32I
VL: B1 VL
notes: IgG1EN backbone

target: T1, human monocarboxylate transporter 1 …; assay: cell-based or functional assay

B1 and B2 are within 1.5-fold of each other in “IC50 of inhibition of MCT1 mediated transport (bromopyruvate assay, HEK293T cells)” value: 28 nM for the first, 35 nM for the second.

Compared with B3, B4 is 1.9-fold lower in “IC50 of inhibition of MCT1 mediated transport (bromopyruvate assay, HEK293T cells)” value: 40 nM for the first, 21 nM for the second.

B5 and B6 are within 1.5-fold of each other in “IC50 of inhibition of MCT1 mediated transport (bromopyruvate assay, HEK293T cells)” value: 35 nM for the first, 39 nM for the second.

B7 and B8 are within 1.5-fold of each other in “IC50 of inhibition of MCT1 mediated transport (bromopyruvate assay, HEK293T cells)” value: 31 nM for the first, 42 nM for the second.

B9 and B10 are within 1.5-fold of each other in “IC50 of inhibition of MCT1 mediated transport (bromopyruvate assay, HEK293T cells)” value: 48 nM for the first, 39 nM for the second.

B11 was tested, and the “IC50 of inhibition of MCT1 mediated transport (bromopyruvate assay, HEK293T cells)” value was 38 nM.

target: T1, human monocarboxylate transporter 1 …; assay: cell-based or functional assay; remark: another data set of the same source

First: B1
Second: B2
The “IC50 of inhibition of CD4 T cell proliferation” value of the first is 2-fold lower: 2 nM for the first, 4 nM for the second.

Going from B3 to B4, the “IC50 of inhibition of CD4 T cell proliferation” value falls from 5 nM to 3 nM (1.7-fold).

B5 and B6 are within 1.5-fold of each other in “IC50 of inhibition of CD4 T cell proliferation” value: 4 nM for the first, 3 nM for the second.

Compared with B7, B8 is 1.7-fold lower in “IC50 of inhibition of CD4 T cell proliferation” value: 5 nM for the first, 3 nM for the second.

B9 and B10 are within 1.5-fold of each other in “IC50 of inhibition of CD4 T cell proliferation” value: 5 nM for the first, 4 nM for the second.

With B11 the “IC50 of inhibition of CD4 T cell proliferation” value was 5 nM.

B1 and B2 are within 1.5-fold of each other in “IC50 of inhibition of CD8 T cell proliferation” value: 4 nM for the first, 5 nM for the second.

Going from B3 to B4, the “IC50 of inhibition of CD8 T cell proliferation” value falls from 6 nM to 3 nM (2-fold).

B5 and B6 are within 1.5-fold of each other in “IC50 of inhibition of CD8 T cell proliferation” value: 5 nM for the first, 7 nM for the second.

B7 and B8 are within 1.5-fold of each other in “IC50 of inhibition of CD8 T cell proliferation” value: 3 nM for the first, 4 nM for the second.

First: B9
Second: B10
The “IC50 of inhibition of CD8 T cell proliferation” value of the first is 1.6-fold higher: 8 nM for the first, 5 nM for the second.

For B11, the “IC50 of inhibition of CD8 T cell proliferation” value was 2 nM.

target: T1, human monocarboxylate transporter 1 …; assay: competition MSD binding assay, antibody titrated with HEK WT cells expressing MCT1, apparent KD, screening at 25 C
Procedure: The mix was incubated at 37° C. for 1-2 days. After incubation, the incubated samples were spun down for 5 min at 500×g to remove cells. A 96-well multi-array plate (Meso Scale Diagnostics, Cat. #L15XA-3) was coated at 4° C. overnight with 1 μg/mL of goat anti human FC in phosphate buffered saline (PBS). Following coating, plates were washed 3 times with 150 μL PBST (PBS with 0.05% Tween 20) and blocked with 150 μL/well of PBS 3% blocker A buffer (Cat #R93BA-1) at 25° C. for 1 hr. Plates were then washed 3 times with PBST. 50 μL of the preincubated antibody: cell dilution series was transferred to the wells and incubated at 25° C. with 700 rpm shaking for 1 hr. Plates were washed 3 times with PBST. Then 100 μL of 1 μg/mL anti-human kappa-biotin antibody (Cat. #2060-08) was added, and plates were incubated at 25° C. with 700 rpm shaking […]. Plates were washed 3 times with PBST, followed by addition of 100 μL of 1 μg/mL MSD Sulfo-tag streptavidin antibody (Meso Scale Diagnostics Cat. #R32 AD1), and plates were incubated at 25° C. with 700 rpm shaking for 1 hr. Plates were washed 3 times with PBST, 150 μL/well of 1× Read Buffer T was added to the wells and analyzed on a SECTOR® Imager 6000 (Meso Scale Diagnostics) 15 min after buffer addition. The apparent KD is determined by fitting a sigmoidal curve to the electrochemiluminescence (ECL) response vs. log (MCT1 receptor concentration) using assay development tool kit graphed with normalized ECL values.

First: B1
Second: B2
The Kd of the first is 9.7-fold lower: 0.47 nM for the first, 4.56 nM for the second.

Compared with B3, B4 is 2.4-fold lower in Kd: 1.31 nM for the first, 0.55 nM for the second. The second binds more tightly here.

First: B5
Second: B6
The Kd of the first is 2.2-fold higher: 1.91 nM for the first, 0.85 nM for the second.

Compared with B7, B8 is 4-fold higher in Kd: 0.71 nM for the first, 2.82 nM for the second.

B9 and B10 are within 1.5-fold of each other in Kd: 1.96 nM for the first, 1.64 nM for the second.

In the case of B11, the Kd is reported as 1.04 nM.
